Measured values from the nanobody polyreactivity screen of Harvey et al. (2022).

Experiment: yeast display, Sf9 membrane polyspecificity reagent, FACS + sequencing; frameworks hold sequencing errors
Outline: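 Synthetic nanobody libraries on Saccharomyces cerevisiae BJ5465 were galactose-induced for 36–48 hours, stained 1 hour at 4 °C with 10% biotinylated, detergent-solubilized Sf9 membrane reagent and enriched on streptavidin microbeads. FACS then separated cells into low and high (top ~1%) gates by anti-HA (expression) and streptavidin (reagent binding) fluorescence. Genes were colony-PCR amplified, MiSeq 2 × 250 sequenced and CDR-length filtered. A clone's polyreactivity label is that of its gate of origin.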

Sequence | polyreactivity (PSR sort gate)
QVQHVESGGGLVQAGGSLRLSCAASGSIIPSNVMGWYRQTPGKDRELVAAISNTGSTNYADSVKGRFTISRDNAKNSVYLQMNSLKPEDTAVYYCNADASYGFWSLLDYDYWGQGTQVTVSS | low polyreactivity
QVQHVESGGGLVQAGGSLRLSCAASGSILGWYAMGWYRQAPGKERELDAAITTAGDSTYYADSVKGRFTISRDNAKNTVYLPLNSLKPEDTAVYYCATRYQVRRGSGPSYDYWGQGTQVTVSS | high polyreactivity
QVQHVESGGGLVQAGGSLRLSCAASGSILRSYAMGWFRQAPGKERELVAVINGSGGRTYYADSVKGRFTISRDNEKNTVYLQMISLKPEDTAVYYCNADPGGRYPRRGYAHEGDYWGQGTQVTVSS | low polyreactivity
QVQHVESGGGLVQAGGSLRLSCAASGSILYLYAMGWYRQAPGKERELVAAISLGDGSTYYADSVKGRFTISRDNAKNTVYLQMNSLKPEDTAVYYCNADRYTYWQDYNYWGQGTQVTVSS | low polyreactivity
QVQHVESGGGLVQAGGSLRLSCAASGSIYISNAMGWYRQAPGKERELVAAITSSGGSTYDADSVKGRFTISRDNAKNTVSLQMNSLKPEDTAVYYCAARPGRNYYYWGQGTQVTVSS | high polyreactivity
QVQHVESGGGLVQAGGSLRLSCAASGSTFGRNAMGWYRQAPGKERELVAAINWSDGSTHYADSVKGRFTISRDNAKNTVYLQMNSLKPEDTAVYYCGADAWSWPVDYNYWGQGTQVTVSS | low polyreactivity
QVQHVESGGGLVQAGGSLRLSCAASGSTFGWYAMGWYRQAPGKERELVAAITRRGTRTYYADSVKGRFTISRDNAKNTVYLQMNSLKPEDTAVYYCNARGFPGKFGYWGQGTQVTVSS | high polyreactivity
QVQHVESGGGLVQAGGSLRLSCAASGSTFPANAMGRYRQAPVKERELVAVISSGGRTYYADSVKGRFTISRDNAKNTVYLQLNSLKPEDTEVYYCAAGSYAGSGPSPWLEYWGQGTQVTVSS | high polyreactivity
QVQHVESGGGLVQAGGSLRLSCAASGSTFRPYAMGWYRQAPGKERELVARITVSGDSTYYADSVKGRFTISRDNAKNTVYLQMNSLKPEDTAVYYCAREFDYSLSGFDYWGQGTQVTVSS | low polyreactivity
QVQHVESGGGLVQAGGSLRLSCAASGSTFTAYAMGWYRQAPGKVSELVAVITSGGGTYYADSVKVRFTISRDNANNTDYLQMNSLKPEDTAVYYCHSARTYAGTYIYRYGYWGQGTQVTVSS | high polyreactivity
QVQHVESGGGLVQAGGSLRLSCAASGSTFTYNAMGWYRQAPGKEREKVASISSGTTTYYADSVKGRFTISRDNAKNTVYLQMNSLKPEDTAVYYCAVDSWSRVQGWLAHNYDYWGQGTLVTVSS | low polyreactivity
QVQHVESGGGLVQAGGSLRLSCAASGSTFVQYAMGWYRQAPGKERELVAAIRGRGDSTYYADSVKGRFTISRDNAKNTVYLQMNSLKPEDTAVYYCAARGQGSRGMYYWGQGTQVTVSS | low polyreactivity
QVQHVESGGGLVQAGGSLRLSCAASGSYLRYYAMGWYRQAPGKERELVAAISRSGTNTYYADSVKGRFTFSPDNAKNSVYLQMNSVKPEVTAVYYCAARGYYRDYDSWGQGTQVTVSS | high polyreactivity
QVQHVESGGGLVQAGGSLRLSCAASGYIFPGSAMGWYRPAPGKERELVAAISTSGGYTYYADSVKGRFTISRDNAKNTVYFQMNSLNPEVTAVYYCAADRYSTDPYAKGTEFYYWGQGTQVTVSS | low polyreactivity
QVQHVESGGGLVQAGGSLRLSCAASGYIFVRNAMGWYRQAPGKERELVAAISGSGGSTYYADSVKGRFTISRDNAKNTVYLQMNSLKPEDTAVYYCAADYATVTWRGIAYDYWGQGTQVTVSS | low polyreactivity
QVQHVESGGGLVQAGGSLRLSCAASVSIFEYYAMGWDRRAHGKERELVARITDSGGSTYADSVKGRFTISRDNAKNTVYLQMSSLKPEDTAVYYCAADDNYFDFDYWGQGTQVTVSS | low polyreactivity
